Assay results: PMC11215065
Values joined by “and” are separate entries in the source; they are usually repeats but may differ in a detail not shown here. Equal values may be shown once.

Legend:
[1] = molecular target: Soluble U20 extracellular domain (sU20) of HHV-6B (HHV-6B); assay: SEC-MALS; EndoH-treated U20 alone; 1 mg/ml, PBS, room temperature
[2] = molecular target: Soluble U20 extracellular domain (sU20) of HHV-6B (HHV-6B); assay: SEC-MALS; U20 with intact high mannose glycans, alone; 1 mg/ml, PBS, room temperature
ULBP1-Fc [3] = assay: SEC-MALS; EndoH-deglycosylated U20 with ULBP1-Fc; 1 mg/ml, PBS, room temperature, WTC-030S5 column
[4] = molecular target: Soluble U20 extracellular domain (sU20) of HHV-6B (HHV-6B); assay: SEC-SAXS; EndoH-treated U20 alone, 4.5 mg/mL, Superdex 200 Increase 5/150 GL in line with SAXS; mass by Porod volume
[5] = molecular target: ULBP1-6xHIS soluble construct (ULBP1-6H); assay: SEC-SAXS; equimolar mixture of EndoH-treated U20 and ULBP1-6H, 4.5 mg/mL, Superdex 200 Increase 5/150 GL in line with SAXS
[6] = molecular target: ULBP1 on transduced HEK293 cells (UniProt Q9BZM6); assay: flow cytometry on cells; ULBP1 (or ULBP3) HEK293 cells pretreated with sU20 at various concentrations for 5 minutes on ice, then stained with 5 nM NKG2D-Fc
[7] = molecular target: ULBP1 on transduced HEK293 cells (UniProt Q9BZM6); assay: flow cytometry on cells; ULBP1 expressing cells pretreated with soluble U20 at various concentrations, then stained with APC conjugated anti-ULBP1 (R&D Systems FAB1380A)
ULBP1-Fc [8] = assay: SPR; Biacore 3000; biotinylated ULBP1-Fc (1000-2500 RU) on a Neutravidin coated CM5 chip; U20 injected at 0.125-32 μM; CD200 receptor Fc flow cell subtracted; equilibrium fit, one site specific binding, apparent; 20°C
NKG2D-Fc = NKG2D-Fc (UniProt P26718); assay: SPR; format not told in the text (Supplementary Figure S1A)
Sequence of NKG2D-Fc (P26718 73-216): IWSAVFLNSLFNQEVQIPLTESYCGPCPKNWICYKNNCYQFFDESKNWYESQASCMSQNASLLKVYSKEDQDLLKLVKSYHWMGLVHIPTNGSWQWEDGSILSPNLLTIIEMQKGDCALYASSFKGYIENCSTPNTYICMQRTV

Sequence of Soluble U20 extracellular domain (sU20) of HHV-6B (domain or fragment) (Q9QJ46 16-321 limits assumed): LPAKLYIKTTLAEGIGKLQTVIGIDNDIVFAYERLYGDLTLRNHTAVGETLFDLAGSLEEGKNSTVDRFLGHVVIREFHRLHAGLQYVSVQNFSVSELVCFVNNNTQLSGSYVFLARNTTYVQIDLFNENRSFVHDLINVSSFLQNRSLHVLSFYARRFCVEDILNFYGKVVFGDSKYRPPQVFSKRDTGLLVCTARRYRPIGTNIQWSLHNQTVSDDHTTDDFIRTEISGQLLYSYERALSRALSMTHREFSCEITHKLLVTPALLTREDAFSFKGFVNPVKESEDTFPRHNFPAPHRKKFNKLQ

| Substance | stoichiometry N [1] | stoichiometry N [2] | stoichiometry N (ULBP1-Fc [3]) | stoichiometry N [4] | stoichiometry N [5] | decrease in NKG2D-Fc binding to ULBP1 cells at 5 μM sU20 [6] [%] | reduction of anti-ULBP1 antibody binding to ULBP1 cells at 0.125 μM sU20 [7] [%] | dissociation half-life (ULBP1-Fc [8]) | Kd (NKG2D-Fc) [nM] |
| --- | --- | --- | --- | --- | --- | --- | --- | --- | --- |
| Soluble U20 extracellular domain (sU20) of HHV-6B (domain or fragment) | 2 | 2 | 1 | 2 | 1 | 90 | 60 | 63 s and 124 s |  |
| ULBP1-6xHIS soluble construct (ULBP1-6H) (domain or fragment) |  |  |  |  |  |  |  |  | 1000 |
